In patent US6406886:

Legend:
Ran = assay: cell-based or functional assay
[1] = target: human Ha-Ras (1st to 189th residues) (UniProt P01112)
[2] = target: yeast Rsr1 (1st to 272nd residues) (UniProt P13856)
[3] = target: human Rap1A (Glu63) (1st to 184th residues) (UniProt P62834)
[4] = target: human RhoA (1st to 193 residues) GST fusion protein (UniProt P61586)
Sequence of human RhoA (1st to 193 residues) GST fusion protein (P61586 whole entry, the tested form may be a part): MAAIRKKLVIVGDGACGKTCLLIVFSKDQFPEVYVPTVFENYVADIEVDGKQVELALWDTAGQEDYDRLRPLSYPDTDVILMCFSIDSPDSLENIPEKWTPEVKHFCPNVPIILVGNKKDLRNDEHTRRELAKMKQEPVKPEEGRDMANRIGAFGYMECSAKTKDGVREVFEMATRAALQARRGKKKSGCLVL

Sequence of fusion protein of human GAP3 (75th to 663rd amino acid residues) and GST (chain, as listed by the source): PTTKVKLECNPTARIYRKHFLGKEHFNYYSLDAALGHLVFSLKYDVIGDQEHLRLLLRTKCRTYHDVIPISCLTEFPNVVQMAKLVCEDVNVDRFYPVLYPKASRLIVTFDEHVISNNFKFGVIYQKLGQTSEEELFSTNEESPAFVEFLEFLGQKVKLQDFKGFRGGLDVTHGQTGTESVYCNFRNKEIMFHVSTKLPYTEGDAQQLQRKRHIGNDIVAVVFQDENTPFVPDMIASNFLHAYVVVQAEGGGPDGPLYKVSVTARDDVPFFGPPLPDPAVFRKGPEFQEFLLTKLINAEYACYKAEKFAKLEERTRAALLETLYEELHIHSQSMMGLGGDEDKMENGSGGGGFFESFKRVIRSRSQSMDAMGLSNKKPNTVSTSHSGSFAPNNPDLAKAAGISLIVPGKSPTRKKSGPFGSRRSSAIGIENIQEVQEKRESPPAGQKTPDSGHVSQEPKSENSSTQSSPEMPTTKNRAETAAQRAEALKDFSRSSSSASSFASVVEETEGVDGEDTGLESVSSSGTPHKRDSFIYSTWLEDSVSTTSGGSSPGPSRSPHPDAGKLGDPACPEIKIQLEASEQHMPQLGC
Sequence of human Rap1A (Glu63) (1st to 184th residues) (P62834 whole entry, looked up, the tested form may be a part): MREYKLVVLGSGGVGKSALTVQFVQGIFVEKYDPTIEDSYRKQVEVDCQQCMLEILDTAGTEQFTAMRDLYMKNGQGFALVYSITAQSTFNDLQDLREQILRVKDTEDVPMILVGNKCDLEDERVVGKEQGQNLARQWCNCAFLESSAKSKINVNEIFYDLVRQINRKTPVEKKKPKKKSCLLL
Sequence of human Ha-Ras (1st to 189th residues) (P01112 whole entry, looked up): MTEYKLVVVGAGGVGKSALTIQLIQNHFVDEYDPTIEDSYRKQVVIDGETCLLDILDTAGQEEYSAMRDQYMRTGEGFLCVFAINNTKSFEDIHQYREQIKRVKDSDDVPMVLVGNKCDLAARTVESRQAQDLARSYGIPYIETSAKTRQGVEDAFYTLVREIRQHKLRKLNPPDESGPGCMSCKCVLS
Sequence of yeast Rsr1 (1st to 272nd residues) (P13856 whole entry): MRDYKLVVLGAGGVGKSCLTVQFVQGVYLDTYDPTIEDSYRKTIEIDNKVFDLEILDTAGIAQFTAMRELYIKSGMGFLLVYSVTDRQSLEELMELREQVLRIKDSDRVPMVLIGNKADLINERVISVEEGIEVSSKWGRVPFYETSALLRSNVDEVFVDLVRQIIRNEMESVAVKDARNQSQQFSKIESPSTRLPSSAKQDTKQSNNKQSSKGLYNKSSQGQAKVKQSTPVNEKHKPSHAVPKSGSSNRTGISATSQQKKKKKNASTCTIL

EC16 (µg/ml), activation of Ran GTPase (Ran) [µg/mL]	Substance	Stimulation (times) of GTPase activity [1] [times]	Stimulation (times) of GTPase activity [2] [times]	Stimulation (times) of GTPase activity [3] [times]	Stimulation (times) of GTPase activity [4] [times]
300	NF1-GDR(Ras GAP) (enzyme)				
	fusion protein of human GAP3 (75th to 663rd amino acid residues) and GST	0	7	10	0
130	fusion protein of human GAP3 (75th to 663rd amino acid residues) and GST (from UniProt P47736 75-663) (enzyme)				
150	p190C(Rho GAP) (enzyme)				
